Source: article PMC11090050

Target: MBP-Rubicon RH (Rubicon Homology domain of Rubicon, wild type) (UniProt Q92622)
Experiment: ITC; MBP-Rubicon RH (80 µM) in the chamber, RAB7A (800 µM) in the syringe; 13 injections at 25°C; 50 mM HEPES 7.5, 150 mM NaCl, 2 mM MgCl2, 10 mM TCEP; simple single-binding-site fit

UniProt Q92622, sequence (Q92622 699-949): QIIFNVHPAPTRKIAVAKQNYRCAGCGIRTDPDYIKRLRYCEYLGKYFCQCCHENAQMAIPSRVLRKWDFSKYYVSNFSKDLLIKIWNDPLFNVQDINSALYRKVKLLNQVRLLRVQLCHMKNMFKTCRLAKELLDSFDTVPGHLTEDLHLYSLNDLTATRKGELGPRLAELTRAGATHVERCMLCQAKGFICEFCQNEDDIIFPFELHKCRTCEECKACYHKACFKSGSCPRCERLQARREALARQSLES

Kd: 1.7 µM
stoichiometry N: 0.7
Substance: RAB7A (recombinantly purified, unlabelled, as used for ITC) (from UniProt P51149 2-182) (natural protein)
